Assay results taken from patent US6458934 (LG CHEMICAL, dated 2002).

How the values were obtained:
[1] = molecular target: T1, 4-1BB antigen (human, UniProt Q07011 24-186, limits assumed); test: BIAcore SPR as in Example 5; antibody captured, 4-1BB antigen in flow
T1 construct: also called human 4-1BB; h4-1BB
Procedure: (§1) The binding affinity of the mouse monoclonal antibody 4B4-1-1 and humanized antibody were determined and compared using the BIAcore™ assay (Pharmacia). Rabbit anti-mouse IgG (Sigma) and goat anti-human IgG (Fc-specific) were each diluted in 10 mM acetic acid buffer, and coupled to a Dextran CM-5 sensor chip (Pharmacia). 1 M ethanolamine was added to stop the reaction. Mouse monoclonal antibody 4B4-1-1 and humanized antibody Hz4B4-1 were each diluted to a concentration of 50 μg/ml in HEPES buffer (HBS). The coupled antibodies were bound at 100 resonance units (R.U.), and 25 μg/ml of 4-1BB antigen was applied at a flow rate of 10 μl/min. and bound for 5 minutes. HBS buffer (Pharmacia) was applied for 5 minutes at the same flow rate so that dissociation would occur. The association rate and dissociation rates and corresponding rate constants were determined by using BIA evaluation software. The results are shown in Table 2 as $kon$ and $koff$ values; K_d is also shown.
(§2) The antigen binding affinity of the purified Hz4B4-2 humanized antibody was measured as in Example 5 using the BIAcore™ assay (Pharmacia).

[2] = molecular target: T1, 4-1BB antigen; test: BIAcore SPR; antibody captured by anti-mouse IgG on a CM-5 chip, 4-1BB antigen 25 µg/ml in flow
Procedure: as §1

[3] = molecular target: T1, 4-1BB antigen; test: BIAcore SPR; ratio of Kd against mouse monoclonal antibody 4B4-1-1
Procedure: as §1, §2

[4] = molecular target: T1, 4-1BB antigen; test: BIAcore SPR; antibody captured by anti-human IgG (Fc-specific) on a CM-5 chip, 4-1BB antigen 25 µg/ml in flow
Procedure: as §1

[5] = molecular target: T1, 4-1BB antigen; test: summary of the BIAcore results; ratio against mouse monoclonal antibody 4B4-1-1
[6] = molecular target: T1, 4-1BB antigen; test: summary of the BIAcore results; ratio against Hz4B4-1

| Kd [1] | kon [1] | Kd [2] | koff [2] | kon [2] | fold greater antigen binding affinity (Kd) than mouse antibody 4B4-1-1 [3] | fold greater antigen binding affinity (Kd) than mouse monoclonal antibody 4B4-1-1 [3] | Kd [4] | koff [4] | kon [4] | koff [1] | fold greater antigen binding affinity than mouse monoclonal antibody 4B4-1-1 [3] | fold higher antigen binding affinity than the original mouse monoclonal antibody [5] | fold greater antigen binding affinity than Hz4B4-1 [6] | Binder |
| --- | --- | --- | --- | --- | --- | --- | --- | --- | --- | --- | --- | --- | --- | --- |
| 0.133 nM | 11600 M⁻¹ s⁻¹ | 0.133 nM | 1.54e-06 s⁻¹ | 11600 M⁻¹ s⁻¹ | – | – | – | – | – | – | – | – | – | mouse monoclonal antibody 4B4-1-1 (antibody, V domains shown, Whole mouse monoclonal antibody from a hybridoma; also called 4B4 MAb; 4B4 monoclonal antibody) VH: QVQLQQPGAELVKPGASVKLSCKASGYTFSSYWMHWVKQRPGQVLEWIGEINPGNGHTNYNEKFKSKATLTVDKSSSTAYMQLSSLTSEDSAVYYCARSFTTARAFAYWGQGTLVTVSA VL: DIVMTQSQATQSVTPGDRVSLSCRASQTISDYLHWYQQKSHESPRLLIKYASQSISGIPSRFSGSGSGSDFTLSINSVEPEDVGVYYCQDGHSFPPTFGGGTKLEIK |
| 0.0872 nM | 50000 M⁻¹ s⁻¹ | – | – | – | ~1.5 fold | 1.5 fold | 0.0872 nM | 4.36e-06 s⁻¹ | 50000 M⁻¹ s⁻¹ | 4.36e-06 s⁻¹ | – | – | – | humanized antibody Hz4B4-1 (antibody, V domains shown, also called Hz4B4k-1 (light chain variable region); Hz4B4h-1 (heavy chain variable region)) VH: QVQLVQSGAEVVKPGASVKLSCKASGYTFSSYWMHWVKQAPGQVLEWIGEINPGNGHTNYNEKFKSKATLTVDKSASTAYMELSSLRSEDTAVYYCARSFTTARAFAYWGQGTLVTVSS VL: DIVMTQSPATQSVSPGERVTLSCRASQTISDYLHWYQQKPGQSPRLLIKYASQSISGIPSRFSGSGSGSDFTLTISSVEPEDFGVYYCQDGHSFPPTFGGGTKLEIK |
| – | – | – | – | – | – | – | – | – | – | – | 7.3 fold | 7 fold | 5 fold | humanized antibody Hz4B4-2 (antibody, V domains shown, Whole antibody made in CHO-K1 cells (SB500 clone); The variable regions were put into the Hz4B4-1 expression vectors, so it has the same human kappa and human heavy chain constant regions; also called Hz4B4k-2 (light chain); Hz4B4h-2 (heavy chain)) VH: QVQLVQSGAEVKKPGASVKVSCKASGYTFSSYWMHWVRQAPGQRLEWMGEINPGNGHTNYSQKFQGRVTITVDKSASTAYMELSSLRSEDTAVYYCARSFTTARAFAYWGQGTLVTVSS VL: DIVMTQSPPTLSLSPGERVTLSCRASQSISDYLHWYQQKPGQSPRLLIKYASQSISGIPARFSGSGSGTDFTLTISSLEPEDFAVYYCQDGHSFPPTFGGGTKVEIK |
